According to article PMC8486843, “SPOP mutation induces replication over-firing by impairing Geminin ubiquitination and triggers replication catastrophe upon ATR inhibition” (Nature Communications, 2021):

Assays:
SPOP MATH (D140G mutant) = biological target: T1, SPOP MATH (D140G mutant) (human, UniProt O43791 28-166, D140G); test: crystal structure; 1.1 mM SPOP MATH D140G with 5.5 mM Geminin peptide; sitting drop, 22 °C; 3.4 Å; conditions: both partners purified
T1 construct: SPOP, human, MATH domain, residues 28-166, D140G; Purified 'using the same protocol' as the 15N-labeled MATH domain 28-166; also called SPOP-MATH domain (D140G mutant)
T1 sequence (O43791 28-166 D140G): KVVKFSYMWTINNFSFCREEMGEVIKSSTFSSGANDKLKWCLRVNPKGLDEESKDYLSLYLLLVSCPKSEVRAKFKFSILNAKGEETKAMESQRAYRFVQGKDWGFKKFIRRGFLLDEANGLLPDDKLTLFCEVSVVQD

[1] = biological target: T2, 15N-labeled SPOP MATH domain (amino acids 28-166) (human, UniProt O43791 28-166, 15N-labeled); test: NMR titration; 1H-15N HSQC of 0.2 mM 15N-labeled SPOP MATH titrated with up to 3-fold molar excess of unlabeled peptide; 298 K; phosphate buffer, 50 mM NaCl, 5 mM DTT, pH 6.0; conditions: both partners purified
T2 construct: SPOP, human, MATH domain, residues 28-166; Hexahistidine tag cleaved with PreScission protease
T2 sequence (O43791 28-166): as the sequence (O43791 28-166 D140G) above, with G113D counted along it

B1: Geminin WT SBC-containing peptide (amino acids 195-209) (peptide)
peptide: AEGTVSSSTDAKPCI
notes: Geminin, human, residues 195-209; also called Geminin peptide; Geminin wild-type SBC peptide; source: synthetic peptide
binding result (SPOP MATH (D140G mutant)): binds
binding result [1]: binds
